Measured values reported in article PMC5762779, “The peroxisomal AAA-ATPase Pex1/Pex6 unfolds substrates by processive threading” (Nature Communications, 2018).
Values belong to the binder of their own block, whether it stands above or below them.

Assays:
Details in all cases: both partners purified
fluorescein labeled Pex5 = target: T1, fluorescein labeled Pex5 (S. cerevisiae, UniProt P35056 1-612, fluorescein (FAM) on a GGGK peptide joined by sortase at the C-terminal LPETGG site); test: pull-down; MBP-Pex6/Pex1 or MBP-Pex15 1-327 on magnetic amylose resin with Pex5-FAM; same conditions as Figure 7B (350 nM Pex5-FAM, 1 h, 4 °C, 60 mM HEPES pH 7.6, 150 mM NaCl, 150 mM KCl, 10% glycerol, 0.05% Tween-20, 10 mM MgCl2, 0.5 mM EDTA, 5 mM ATP); maltose elution; Pex5 seen by its fluorescein
T1 construct: Pex5, S. cerevisiae W303; after labelling the chain ends LPET-GGGK-FAM; also called Pex5-FAM; source: E. coli BL21*, purified (Ni-NTA, anti-FLAG, Superdex 200), labelled with sortase and GGGK-FAM peptide; not shown: His6, C-terminal, cleaved
T1 sequence (looked up): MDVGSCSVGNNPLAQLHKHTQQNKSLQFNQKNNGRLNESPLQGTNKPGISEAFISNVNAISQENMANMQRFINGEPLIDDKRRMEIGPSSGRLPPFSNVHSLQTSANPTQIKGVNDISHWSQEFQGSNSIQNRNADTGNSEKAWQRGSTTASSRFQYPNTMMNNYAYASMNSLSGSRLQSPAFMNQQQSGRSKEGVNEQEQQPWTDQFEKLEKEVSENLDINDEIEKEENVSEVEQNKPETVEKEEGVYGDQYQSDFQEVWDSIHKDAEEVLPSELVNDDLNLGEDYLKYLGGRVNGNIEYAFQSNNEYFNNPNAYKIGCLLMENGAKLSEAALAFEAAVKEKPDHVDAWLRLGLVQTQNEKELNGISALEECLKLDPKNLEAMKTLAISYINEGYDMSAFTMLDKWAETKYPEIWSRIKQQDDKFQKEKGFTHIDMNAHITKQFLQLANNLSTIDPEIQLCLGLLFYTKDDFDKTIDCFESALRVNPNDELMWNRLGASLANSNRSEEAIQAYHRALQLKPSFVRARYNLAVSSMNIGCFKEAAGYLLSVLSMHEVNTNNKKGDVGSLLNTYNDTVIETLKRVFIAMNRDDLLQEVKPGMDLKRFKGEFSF

His-Pex6-FLAG = target: T2, His-Pex6-FLAG (S. cerevisiae, UniProt P33760 1-1030); test: pull-down; 1 uM MBP-Pex15 1-327-FLAG-His on magnetic amylose resin with 0.5 uM Pex1-Strep/His-Pex6 hexamer, His-Pex1-FLAG, His-Pex6-FLAG or 5 uM His-Pex6 1-215; 1 h, 4 °C, 60 mM HEPES pH 7.6, 150 mM NaCl, 150 mM KCl, 10% glycerol, 0.05% Tween-20, 10 mM MgCl2, 0.5 mM EDTA, 5 mM ATP; maltose elution; SYPRO-Ruby or anti-His blot
T2 construct: Pex6, S. cerevisiae W303, purified individually; not shown: His, N-terminal, kept; FLAG, C-terminal, kept
T2 sequence (looked up): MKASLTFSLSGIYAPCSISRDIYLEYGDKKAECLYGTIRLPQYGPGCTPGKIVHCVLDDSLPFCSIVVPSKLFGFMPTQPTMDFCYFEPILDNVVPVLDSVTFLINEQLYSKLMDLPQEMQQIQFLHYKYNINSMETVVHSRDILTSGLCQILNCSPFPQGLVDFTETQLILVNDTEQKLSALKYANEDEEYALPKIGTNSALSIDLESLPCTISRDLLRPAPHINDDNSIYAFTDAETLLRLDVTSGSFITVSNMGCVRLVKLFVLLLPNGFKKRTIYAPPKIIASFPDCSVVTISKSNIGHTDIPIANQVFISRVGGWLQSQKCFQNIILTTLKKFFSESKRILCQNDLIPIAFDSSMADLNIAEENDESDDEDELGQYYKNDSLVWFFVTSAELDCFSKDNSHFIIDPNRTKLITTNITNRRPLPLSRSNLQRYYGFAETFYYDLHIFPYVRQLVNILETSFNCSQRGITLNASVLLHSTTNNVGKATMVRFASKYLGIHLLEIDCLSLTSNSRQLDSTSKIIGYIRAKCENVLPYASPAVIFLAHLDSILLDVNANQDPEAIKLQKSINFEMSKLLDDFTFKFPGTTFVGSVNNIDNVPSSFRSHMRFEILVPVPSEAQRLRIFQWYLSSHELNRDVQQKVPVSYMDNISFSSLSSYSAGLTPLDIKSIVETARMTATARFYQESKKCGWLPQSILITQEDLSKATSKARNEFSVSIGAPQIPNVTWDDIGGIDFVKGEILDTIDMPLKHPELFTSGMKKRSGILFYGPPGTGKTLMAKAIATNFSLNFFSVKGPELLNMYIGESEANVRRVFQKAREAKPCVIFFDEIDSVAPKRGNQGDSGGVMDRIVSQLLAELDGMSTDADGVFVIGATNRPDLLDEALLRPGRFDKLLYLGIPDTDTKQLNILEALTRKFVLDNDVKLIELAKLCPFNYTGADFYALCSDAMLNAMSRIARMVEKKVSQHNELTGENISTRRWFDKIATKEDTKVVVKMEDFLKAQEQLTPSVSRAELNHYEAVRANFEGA

[1] = target: T3, fluorescein-labeled Pex5 (Pex5-FAM) (S. cerevisiae, UniProt P35056 1-612, fluorescein-conjugated peptide GGGK-FAM joined by sortase at the LPETGG site at the C-terminus); test: pull-down; 2 μM MBP-Pex15 1-327 on magnetic amylose resin with 350 nM Pex5-FAM, with or without 1 μM Pex1-WB2/Pex6-WB2 and 100 μM SKL peptide, 1 h, 4 °C, 60 mM HEPES pH 7.6, 150 mM NaCl, 150 mM KCl, 10% glycerol, 0.05% Tween-20, 10 mM MgCl2, 0.5 mM EDTA, 5 mM ATP; eluted with 20 mM maltose; Pex5 seen by its fluorescein
T3 construct: Pex5, S. cerevisiae W303 coding region, followed by a sortase site (LPETGG) upstream of the C-terminal 6xHis tag; Likely derived from FLAG-Pex5-His, so an N-terminal FLAG tag may be present; After sortase the C-terminus should read LPET-GGGK(FAM); source: E. coli BL21*, purified, sortase-labelled, Ni-NTA flow-through, Superdex 200 increase; not shown: His6, C-terminal, cleaved
T3 sequence (looked up): T1 sequence (looked up)

[2] = target: T4, Pex1-FLAG/His-Pex6 hexamer, wild type (S. cerevisiae, UniProt P24004 1-1043; P33760 1-1030); test: negative-stain EM reconstruction; 20 nM Pex1-FLAG/His-Pex6 mixed with 200 nM Pex15, 5 min on ice, 5 mM ATP; 3D reconstruction at 23.2 Å
T4 construct: Pex1, S. cerevisiae W303 coding region; Pex6, S. cerevisiae W303 coding region; also called Pex1/Pex6; wild-type Pex1/Pex6; source: E. coli BL21*, co-expressed, purified (Ni-NTA, anti-FLAG, Superose6); not shown: FLAG, C-terminal, kept; His6, N-terminal, kept; copies: 3 + 3
T4 sequence (P24004 whole entry, chain 1 of 2, one chain of several): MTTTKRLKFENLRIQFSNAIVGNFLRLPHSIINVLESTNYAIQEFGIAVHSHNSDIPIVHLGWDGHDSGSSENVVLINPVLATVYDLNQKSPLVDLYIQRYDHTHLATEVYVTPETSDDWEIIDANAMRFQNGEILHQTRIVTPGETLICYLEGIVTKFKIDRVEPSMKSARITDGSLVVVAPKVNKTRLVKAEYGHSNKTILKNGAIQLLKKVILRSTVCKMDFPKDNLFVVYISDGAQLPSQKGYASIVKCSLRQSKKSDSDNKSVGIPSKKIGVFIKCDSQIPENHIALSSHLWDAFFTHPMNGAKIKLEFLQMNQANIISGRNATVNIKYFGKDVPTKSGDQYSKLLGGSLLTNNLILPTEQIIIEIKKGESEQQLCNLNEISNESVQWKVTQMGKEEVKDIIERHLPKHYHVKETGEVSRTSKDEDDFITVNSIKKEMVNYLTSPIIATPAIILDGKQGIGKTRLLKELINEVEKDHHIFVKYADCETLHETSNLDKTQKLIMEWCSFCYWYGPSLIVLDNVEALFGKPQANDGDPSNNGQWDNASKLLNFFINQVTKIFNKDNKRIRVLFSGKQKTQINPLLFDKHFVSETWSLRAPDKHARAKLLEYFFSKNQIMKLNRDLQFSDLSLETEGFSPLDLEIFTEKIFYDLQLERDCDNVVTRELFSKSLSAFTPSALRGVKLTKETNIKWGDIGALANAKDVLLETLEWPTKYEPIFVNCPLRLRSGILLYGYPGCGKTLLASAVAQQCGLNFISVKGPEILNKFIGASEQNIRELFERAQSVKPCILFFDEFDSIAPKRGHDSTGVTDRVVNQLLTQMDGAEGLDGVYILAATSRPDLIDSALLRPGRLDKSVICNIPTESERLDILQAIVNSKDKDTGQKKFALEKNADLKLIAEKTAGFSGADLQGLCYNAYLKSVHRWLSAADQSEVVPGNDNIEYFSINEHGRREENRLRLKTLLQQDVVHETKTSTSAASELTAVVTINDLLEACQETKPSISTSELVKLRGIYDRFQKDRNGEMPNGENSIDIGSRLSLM

[3] = target: T5, Pex1-FLAG/His-Pex6 hexamer, wild type (S. cerevisiae, UniProt P24004 1-1043; P33760 1-1030); test: inhibition of ATPase activity (ATP/NADH coupled enzyme assay); apparent KD from the concentration-dependent inhibition of the ATPase activity of 5 nM Pex1/Pex6 by titrated Pex15; 5 mM ATP, 2 uM BSA; n = 3 technical replicates
T5 construct: Pex1, S. cerevisiae W303; Pex6, S. cerevisiae W303; Heterohexamer with alternating subunits; also called WT Pex1/Pex6; Pex1/Pex6; source: E. coli BL21*, co-expressed, purified (Ni-NTA, anti-FLAG, Superose6); copies: 3 + 3
T5 sequence (P24004 whole entry, chain 1 of 2, one chain of several): as above

[4] = target: T6, Pex1-WB2/Pex6-WB2 mutant hexamer (Pex1-E798Q-Strep/His-Pex6-E832Q) (S. cerevisiae, UniProt P24004 1-1043; P33760 1-1030, E798Q | E832Q); test: HDX-MS; 3 uM Pex15 1-309 and 100 nM Pex1-WB2/Pex6-WB2 hexamer in D2O buffer (60 mM HEPES pD 7.6, 50 mM NaCl, 50 mM KCl, 10% glycerol, 10 mM MgCl2, 0.5 mM EDTA, 5 mM ATP); 15 s deuteration, with and without saturating Pex15
T6 construct: Pex1, S. cerevisiae W303, Walker B D2 mutant; Pex6, S. cerevisiae W303, Walker B D2 mutant; also called Pex1-WB/Pex6-WB; ATPase-deficient Pex1/Pex6; source: E. coli BL21*, co-expressed, purified (Ni-NTA, Streptactin); copies: 3 + 3
T6 sequence (P24004 whole entry E798Q, chain 1 of 2): as the sequence (P24004 whole entry, chain 1 of 2, one chain of several) above, with E798Q counted along it
T6 sequence (P33760 whole entry E832Q, chain 2 of 2): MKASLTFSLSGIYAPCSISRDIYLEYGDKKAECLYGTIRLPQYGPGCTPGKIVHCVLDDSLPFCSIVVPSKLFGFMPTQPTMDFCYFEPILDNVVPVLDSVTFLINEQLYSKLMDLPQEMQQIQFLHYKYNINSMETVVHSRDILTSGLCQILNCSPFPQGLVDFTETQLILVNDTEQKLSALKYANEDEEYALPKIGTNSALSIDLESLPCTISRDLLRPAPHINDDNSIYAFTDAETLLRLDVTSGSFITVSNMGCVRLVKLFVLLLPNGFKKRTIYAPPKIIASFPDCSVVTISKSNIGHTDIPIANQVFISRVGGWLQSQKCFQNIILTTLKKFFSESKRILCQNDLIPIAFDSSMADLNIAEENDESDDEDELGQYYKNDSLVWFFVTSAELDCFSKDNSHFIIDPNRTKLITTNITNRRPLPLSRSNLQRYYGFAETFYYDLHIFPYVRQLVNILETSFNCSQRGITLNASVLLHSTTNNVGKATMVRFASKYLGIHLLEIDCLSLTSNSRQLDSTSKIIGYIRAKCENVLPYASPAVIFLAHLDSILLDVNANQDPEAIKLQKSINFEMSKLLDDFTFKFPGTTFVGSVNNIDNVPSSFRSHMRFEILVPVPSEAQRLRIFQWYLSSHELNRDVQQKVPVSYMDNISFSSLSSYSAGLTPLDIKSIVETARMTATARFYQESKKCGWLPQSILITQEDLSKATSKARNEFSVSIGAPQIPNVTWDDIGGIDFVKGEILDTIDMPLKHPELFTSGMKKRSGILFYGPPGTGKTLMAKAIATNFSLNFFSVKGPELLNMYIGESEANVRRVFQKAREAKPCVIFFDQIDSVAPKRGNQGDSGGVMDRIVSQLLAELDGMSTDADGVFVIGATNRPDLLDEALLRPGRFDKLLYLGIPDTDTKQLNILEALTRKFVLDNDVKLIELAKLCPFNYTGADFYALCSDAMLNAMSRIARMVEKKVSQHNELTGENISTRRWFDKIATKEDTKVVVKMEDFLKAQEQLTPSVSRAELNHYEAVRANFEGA

[5] = target: T5, Pex1-FLAG/His-Pex6 hexamer, wild type; test: inhibition of ATPase activity (ATP/NADH coupled enzyme assay); apparent KD from the concentration-dependent inhibition of the ATPase activity of 5 nM Pex1/Pex6 by titrated Pex15; 5 mM ATP, 2 uM BSA; n = 3 technical replicates; remark: listed apart in the source
[6] = target: T7, Pex1-FLAG/His-Pex6 (V245A, T246A) hexamer (S. cerevisiae, UniProt P24004 1-1043; P33760 1-1030, V245A | T246A); test: as above
T7 construct: Pex1, S. cerevisiae W303; also called Pex1/Pex6-VT:AA; Pex6 VT:AA; source: E. coli BL21*, co-expressed, purified (Ni-NTA, anti-FLAG, Superose6); copies: 3 + 3
T7 sequence (P24004 whole entry, chain 1 of 2): as the sequence (P24004 whole entry, chain 1 of 2, one chain of several) above
T7 sequence (P33760 whole entry V245A/T246A, chain 2 of 2): as the sequence (P33760 whole entry E832Q, chain 2 of 2) above, with V245A, T246A, Q832E counted along it

B3: Pex15 cytosolic domain (aa 1-327), as used for negative-stain EM (domain or fragment, S. cerevisiae, UniProt Q08215 1-327, looked up)
chain: MAASEIMNNLPMHSLDSSLRDLLNDDLFIESDESTKSVNDQRSEVFQECVNLFIKRDIKDCLEKMSEVGFIDITVFKSNPMILDLFVSACDIMPSFTKLGLTLQSEILNIFTLDTPQCIETRKIILGDLSKLLVINKFFRCCIKVIQFNLTDHTEQEEKTLELESIMSDFIFVYITKMRTTIDVVGLQELIEIFIFQVKVKLHHKKPSPNMYWALCKTLPKLSPTLKGLYLSKDVSIEDAILNSIDNKIQKDKAKSKGKQRGVKQKIHHFHEPMLHNSSEEQVKVEDAFNQRTSTDSRLQSTGTAPRKKNNDITVLAGSFWAVLKHH
notes: Pex15, S. cerevisiae W303, cytosolic domain residues 1-327; also called Pex15 cytosolic portion; source: E. coli BL21*, purified (Ni-NTA, Superdex 200); not shown: His, C-terminal, cleaved
- stoichiometry N [2]: 3 Pex15 per Pex1/Pex6 hexamer

B4: Pex15 1-309 (cytosolic domain) (domain or fragment, S. cerevisiae, UniProt Q08215 1-309, looked up)
chain: MAASEIMNNLPMHSLDSSLRDLLNDDLFIESDESTKSVNDQRSEVFQECVNLFIKRDIKDCLEKMSEVGFIDITVFKSNPMILDLFVSACDIMPSFTKLGLTLQSEILNIFTLDTPQCIETRKIILGDLSKLLVINKFFRCCIKVIQFNLTDHTEQEEKTLELESIMSDFIFVYITKMRTTIDVVGLQELIEIFIFQVKVKLHHKKPSPNMYWALCKTLPKLSPTLKGLYLSKDVSIEDAILNSIDNKIQKDKAKSKGKQRGVKQKIHHFHEPMLHNSSEEQVKVEDAFNQRTSTDSRLQSTGTAPRKK
notes: likely here too; source: E. coli BL21*, purified (Ni-NTA, tag cleaved with PreScission protease, Superdex 200); not shown: His, C-terminal, cleaved
- Kd [3]: 580 nM
- binding result [4]: binds
- Kd [5]: 580 ± 180 nM
- Kd [6]: 1980 ± 580 nM

Second part, the binder after the results:

- binding result (fluorescein labeled Pex5): binds
- binding result (His-Pex6-FLAG): binds
B1: MBP-Pex15 1-327-FLAG-His (domain or fragment, S. cerevisiae, UniProt Q08215 1-327, looked up)
chain: B3 chain
notes: Pex15, S. cerevisiae W303, cytosolic domain, residues 1-327; Held on magnetic amylose resin by its MBP; not shown: MBP, N-terminal, kept; FLAG, C-terminal, kept; His, C-terminal, kept

- binding result [1]: binds
B2: MBP-Pex15 1-327-FLAG-His (domain or fragment, S. cerevisiae, UniProt Q08215 1-327, looked up)
chain: B3 chain
notes: Pex15, S. cerevisiae W303, cytosolic domain residues 1-327; not shown: MBP, N-terminal, kept; FLAG, C-terminal, kept; His, C-terminal, kept
